Measured values taken from US6635429, “Heterodimeric nuclear receptors proteins, genes encoding same, and usage thereof” (Institut National de la Sante et de la Recherche Medicale).

Experiments:
Details in all cases: protein: extract; tags: yeast-expressed
[1] = target: T1, RARα1/RXRα heterodimer (yeast) (Homo sapiens/Mus musculus, UniProt P10276;P28700 P10276:1-462,P28700:1-467); assay: cell_activity; yeast, 500 nM 9-cis RA
T1 sequence 1: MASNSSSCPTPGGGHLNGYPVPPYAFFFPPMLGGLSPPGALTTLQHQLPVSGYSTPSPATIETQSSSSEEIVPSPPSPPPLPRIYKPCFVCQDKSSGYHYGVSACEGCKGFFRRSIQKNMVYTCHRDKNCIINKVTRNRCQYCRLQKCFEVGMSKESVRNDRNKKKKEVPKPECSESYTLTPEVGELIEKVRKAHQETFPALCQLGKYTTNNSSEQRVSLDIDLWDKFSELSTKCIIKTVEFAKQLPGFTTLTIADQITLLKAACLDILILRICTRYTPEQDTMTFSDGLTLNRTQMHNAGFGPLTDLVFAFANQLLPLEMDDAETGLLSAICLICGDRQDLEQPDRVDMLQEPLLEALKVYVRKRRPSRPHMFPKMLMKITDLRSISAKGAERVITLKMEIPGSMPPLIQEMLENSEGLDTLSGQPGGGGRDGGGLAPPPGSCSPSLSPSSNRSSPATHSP
T1 sequence 2: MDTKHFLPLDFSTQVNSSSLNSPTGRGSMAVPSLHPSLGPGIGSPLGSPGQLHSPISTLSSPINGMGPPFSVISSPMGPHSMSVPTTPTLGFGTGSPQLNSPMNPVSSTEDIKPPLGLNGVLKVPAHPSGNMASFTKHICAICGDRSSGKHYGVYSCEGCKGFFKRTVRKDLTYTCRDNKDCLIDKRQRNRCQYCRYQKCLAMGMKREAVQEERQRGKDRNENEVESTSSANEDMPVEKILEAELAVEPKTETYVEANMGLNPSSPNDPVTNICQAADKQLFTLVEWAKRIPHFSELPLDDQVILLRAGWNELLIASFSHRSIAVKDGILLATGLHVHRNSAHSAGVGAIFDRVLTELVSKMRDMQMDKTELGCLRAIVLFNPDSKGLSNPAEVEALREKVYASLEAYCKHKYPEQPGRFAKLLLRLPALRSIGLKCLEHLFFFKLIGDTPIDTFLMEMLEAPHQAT
From the text: (§1) FIG. 13A, Sequences of the response elements used in this study consisting of a direct repeat of a hexamer sequence spaced by one to five base pairs (DR1–DR5), or an inverted repeat of the same hexamer with no spacing (IR0). The hexamer repeats are indicated by arrows and the spacer sequences are presented in lower case. FIG. 13B, Transactivation of URA3 reporter genes containing the different elements by homodimers and heterodimers of RARα and RXRα. The sequences represented in FIG. 13A were cloned into the promoter of a URA3 reporter gene carried on a centromeric plasmid to generate the DRn-URA3 reporter series and IR0-URA3. The reporters were introduced into a yeast strain containing multicopy vectors expressing RARα, RXRα or no receptor. […] "Control" indicates the basal reporter activity in the absence of receptors (using "empty" expression vectors), and the experiments using only one receptor were performed in the presence of the corresponding "empty" vector. The white, hatched and black columns indicate the reporter activity in the presence of no ligand, all-trans RA and 9-cis RA, respectively. The reporter activities are given as units of OMPdecase activity per minute per mg protein, and the values represent the average of at least 2 experiments using at least 2 different clones per experiment. […] Similar amounts of each probe (50, 000 cpm) were used in the assays.

RXRα (yeast) [2] = target: T2, RXRα (yeast) (Mus musculus, UniProt P28700 SEQ:1-467); assay: cell_activity; yeast, 9-cis RA
T2 sequence: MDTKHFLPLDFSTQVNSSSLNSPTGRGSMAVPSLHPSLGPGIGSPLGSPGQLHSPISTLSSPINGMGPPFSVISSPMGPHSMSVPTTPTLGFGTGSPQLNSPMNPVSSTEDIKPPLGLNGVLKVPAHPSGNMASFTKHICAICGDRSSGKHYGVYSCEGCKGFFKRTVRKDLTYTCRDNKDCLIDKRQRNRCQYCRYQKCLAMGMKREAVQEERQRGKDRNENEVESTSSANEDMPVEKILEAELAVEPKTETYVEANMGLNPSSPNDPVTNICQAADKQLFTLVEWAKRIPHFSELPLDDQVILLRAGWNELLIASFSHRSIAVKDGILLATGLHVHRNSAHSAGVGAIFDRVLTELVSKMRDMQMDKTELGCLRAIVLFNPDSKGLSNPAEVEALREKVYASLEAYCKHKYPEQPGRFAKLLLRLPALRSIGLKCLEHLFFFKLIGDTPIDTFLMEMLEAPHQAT
From the text: as §1

[3] = target: T1, RARα1/RXRα heterodimer (yeast); assay: cell_activity; yeast URA3 reporter, 500 nM 9-cis RA
From the text: as §1

RXRα (yeast) [4] = target: T2, RXRα (yeast); assay: cell_activity; yeast, ligand dependent; low absolute activity
From the text: as §1

[5] = target: T1, RARα1/RXRα heterodimer (yeast); assay: cell_activity; yeast, 500 nM 9-cis RA; low absolute activity
From the text: as §1

B1: DR2 (dsDNA)
DNA 1: AGGTCAGCAGGTCA
DNA 2: TGACCTGCTGACCT
activity [1]: ~10 fold over control

B2: DR4 (dsDNA)
DNA 1: AGGTCAGCGAAGGTCA
DNA 2: TGACCTTCGCTGACCT
activity [1]: ~10 fold over control

B3: DR3 (dsDNA)
DNA 1: AGGTCAGCGAGGTCA
DNA 2: TGACCTCGCTGACCT
activity [1]: ~10 fold over control

B4: DR1 (dsDNA)
DNA 1: AGGTCAGAGGTCA
DNA 2: TGACCTCTGACCT
activity (RXRα (yeast) [2]): ≥ 30 fold | activity [3]: 36 fold over control

B5: IR0 (dsDNA)
DNA 1: AGGTCATGACCT
DNA 2: AGGTCATGACCT
activity (RXRα (yeast) [4]): 20 fold over control | activity [5]: 40 fold over control

B6: DR5 (dsDNA)
DNA 1: AGGTCAGCGAGAGGTCA
DNA 2: TGACCTCTCGCTGACCT
activity [3]: 60 fold over control
